Sequences and labels used below:
B1: Pyruvate dehydrogenase protein X component, mitochondrial, residues 181 to 227; numbered along this chain, O00330 (parent)
chain: RFRLSPAARNILEKHSLDASQGTATGPRGIFTKEDALKLVQLKQTGK

± gives the uncertainty stated by the source.

The variants in the data set derive from B1. As to the kind of experiment: abundance fitness (aPCA) (normalised: wild type 0, dead -1); higher = more abundant; growth selection in yeast, the domain comes from the species named. The settings on record: Homo sapiens.
On to RFRLSPAARNILEKHSLDAYQGTATGPRGIFTKEDALKLVQLKQTGK [S20Y], for which the abundance fitness was -0.932 ± 0.18.

With RFRLSPAARNILEKHSLDAWQGTATGPRGIFTKEDALKLVQLKQTGK [S20W], the abundance fitness was -0.788 ± 0.075.

On to RFRLSPAARNILEKHSLDASQATATGPRGIFTKEDALKLVQLKQTGK [G22A], for which the abundance fitness was -0.337 ± 0.067.

Consider RFRLSPAARNILEKHSLDASQCTATGPRGIFTKEDALKLVQLKQTGK [G22C], for which the abundance fitness was -0.419 ± 0.081.

On to RFRLSPAARNILEKHSLDASQPTATGPRGIFTKEDALKLVQLKQTGK [G22P], for which the abundance fitness is -0.64 ± 0.071.

For RFRLSPAARNILEKHSLDASQLTATGPRGIFTKEDALKLVQLKQTGK [G22L], the abundance fitness was -0.475 ± 0.047.

Take RFRLSPAARNILEKHSLDASQVTATGPRGIFTKEDALKLVQLKQTGK [G22V]: the abundance fitness is -0.378 ± 0.06.

In the case of RFRLSPAARNILEKHSLDASQNTATGPRGIFTKEDALKLVQLKQTGK [G22N], the abundance fitness is -0.648 ± 0.078.

RFRLSPAARNILEKHSLDASQHTATGPRGIFTKEDALKLVQLKQTGK [G22H]: the abundance fitness is -0.524 ± 0.11.

Take RFRLSPAARNILEKHSLDASQRTATGPRGIFTKEDALKLVQLKQTGK [G22R]: the abundance fitness is -0.723 ± 0.07.

In the case of RFRLSPAARNILEKHSLDASQYTATGPRGIFTKEDALKLVQLKQTGK [G22Y], the abundance fitness was -0.623 ± 0.08.

In the case of RFRLSPAARNILEKHSLDASQITATGPRGIFTKEDALKLVQLKQTGK [G22I], the abundance fitness is -0.446 ± 0.058.

RFRLSPAARNILEKHSLDASQQTATGPRGIFTKEDALKLVQLKQTGK [G22Q]: the abundance fitness was -0.479 ± 0.048.

Consider RFRLSPAARNILEKHSLDASQKTATGPRGIFTKEDALKLVQLKQTGK [G22K], for which the abundance fitness was -0.633 ± 0.099.

Consider RFRLSPAARNILEKHSLDASQFTATGPRGIFTKEDALKLVQLKQTGK [G22F], for which the abundance fitness is -0.679 ± 0.053.

Take RFRLSPAARNILEKHSLDASQTTATGPRGIFTKEDALKLVQLKQTGK [G22T]: the abundance fitness was -0.554 ± 0.065.

As for RFRLSPAARNILEKHSLDASQMTATGPRGIFTKEDALKLVQLKQTGK [G22M], the abundance fitness was -0.369 ± 0.051.

As to RFRLSPAARNILEKHSLDASQWTATGPRGIFTKEDALKLVQLKQTGK [G22W], the abundance fitness is -0.712 ± 0.074.

For the variant RFRLSPAARNILEKHSLDASQDTATGPRGIFTKEDALKLVQLKQTGK [G22D], the abundance fitness was -0.552 ± 0.097.

Regarding RFRLSPAARNILEKHSLDASQETATGPRGIFTKEDALKLVQLKQTGK [G22E], the abundance fitness is -0.43 ± 0.078.

For RFRLSPAARNILEKHSLDASQSTATGPRGIFTKEDALKLVQLKQTGK [G22S], the abundance fitness is -0.619 ± 0.066.

With RFRLSPAARNILEKHSLDASQGTATGERGIFTKEDALKLVQLKQTGK [P27E], the abundance fitness is -0.131 ± 0.059.

With RFRLSPAARNILEKHSLDASQGTATGFRGIFTKEDALKLVQLKQTGK [P27F], the abundance fitness is -0.655 ± 0.14.

On to RFRLSPAARNILEKHSLDASQGTATGGRGIFTKEDALKLVQLKQTGK [P27G], for which the abundance fitness is -0.491 ± 0.057.

Take RFRLSPAARNILEKHSLDASQGTATGIRGIFTKEDALKLVQLKQTGK [P27I]: the abundance fitness is -0.547 ± 0.11.

Regarding RFRLSPAARNILEKHSLDASQGTATGCRGIFTKEDALKLVQLKQTGK [P27C], the abundance fitness is -0.323 ± 0.067.

For the variant RFRLSPAARNILEKHSLDASQGTATGHRGIFTKEDALKLVQLKQTGK [P27H], the abundance fitness was -0.309 ± 0.058.

For RFRLSPAARNILEKHSLDASQGTATGDRGIFTKEDALKLVQLKQTGK [P27D], the abundance fitness was -0.022 ± 0.07.

Turning to RFRLSPAARNILEKHSLDASDGTATGPRGIFTKEDALKLVQLKQTGK [Q21D], the abundance fitness was -0.194 ± 0.068.

RFRLSPAARNILEKHSLDASNGTATGPRGIFTKEDALKLVQLKQTGK [Q21N]: the abundance fitness is -0.516 ± 0.056.

Consider RFRLSPAARNILEKHSLDASRGTATGPRGIFTKEDALKLVQLKQTGK [Q21R], for which the abundance fitness was -0.44 ± 0.058.

Regarding RFRLSPAARNILEKHSLDASMGTATGPRGIFTKEDALKLVQLKQTGK [Q21M], the abundance fitness was -0.084 ± 0.051.

As for RFRLSPAARNILEKHSLDASKGTATGPRGIFTKEDALKLVQLKQTGK [Q21K], the abundance fitness is -0.339 ± 0.045.

Regarding RFRLSPAARNILEKHSLDASTGTATGPRGIFTKEDALKLVQLKQTGK [Q21T], the abundance fitness is -0.427 ± 0.074.

Regarding RFRLSPAARNILEKHSLDASGGTATGPRGIFTKEDALKLVQLKQTGK [Q21G], the abundance fitness is -0.101 ± 0.048.

As to RFRLSPAARNILEKHSLDASFGTATGPRGIFTKEDALKLVQLKQTGK [Q21F], the abundance fitness is -0.493 ± 0.085.

Take RFRLSPAARNILEKHSLDASPGTATGPRGIFTKEDALKLVQLKQTGK [Q21P]: the abundance fitness was -0.453 ± 0.06.

As for RFRLSPAARNILEKHSLDASVGTATGPRGIFTKEDALKLVQLKQTGK [Q21V], the abundance fitness was -0.31 ± 0.049.

RFRLSPAARNILEKHSLDASEGTATGPRGIFTKEDALKLVQLKQTGK [Q21E]: the abundance fitness came out at 0.041 ± 0.068.

Turning to RFRLSPAARNILEKHSLDASSGTATGPRGIFTKEDALKLVQLKQTGK [Q21S], the abundance fitness was -0.158 ± 0.058.

On to RFRLSPAARNILEKHSLDASLGTATGPRGIFTKEDALKLVQLKQTGK [Q21L], for which the abundance fitness was -0.051 ± 0.046.

For the variant RFRLSPAARNILEKHSLDASWGTATGPRGIFTKEDALKLVQLKQTGK [Q21W], the abundance fitness was -0.223 ± 0.056.

Take RFRLSPAARNILEKHSLDASYGTATGPRGIFTKEDALKLVQLKQTGK [Q21Y]: the abundance fitness was -0.481 ± 0.14.

As to RFRLSPAARNILEKHSLDASCGTATGPRGIFTKEDALKLVQLKQTGK [Q21C], the abundance fitness was -0.167 ± 0.059.

With RFRLSPAARNILEKHSLDASQGTKTGPRGIFTKEDALKLVQLKQTGK [A24K], the abundance fitness is -0.638 ± 0.13.

As to RFRLSPAARNILEKHSLDASQGTDTGPRGIFTKEDALKLVQLKQTGK [A24D], the abundance fitness was -0.661 ± 0.079.

For the variant RFRLSPAARNILEKHSLDASQGTSTGPRGIFTKEDALKLVQLKQTGK [A24S], the abundance fitness is -0.271 ± 0.059.

Take RFRLSPAARNILEKHSLDASQGTCTGPRGIFTKEDALKLVQLKQTGK [A24C]: the abundance fitness was -0.473 ± 0.089.

On to RFRLSPAARNILEKHSLDASQGTGTGPRGIFTKEDALKLVQLKQTGK [A24G], for which the abundance fitness was -0.331 ± 0.068.

Regarding RFRLSPAARNILEKHSLDASQGTVTGPRGIFTKEDALKLVQLKQTGK [A24V], the abundance fitness was -0.476 ± 0.055.

Take RFRLSPAARNILEKHSLDASQGTHTGPRGIFTKEDALKLVQLKQTGK [A24H]: the abundance fitness is -0.454 ± 0.053.

Consider RFRLSPAARNILEKHSLDASQGTQTGPRGIFTKEDALKLVQLKQTGK [A24Q], for which the abundance fitness is -0.597 ± 0.11.

Take RFRLSPAARNILEKHSLDASQGTYTGPRGIFTKEDALKLVQLKQTGK [A24Y]: the abundance fitness was -1.07 ± 0.25.

RFRLSPAARNILEKHSLDASQGTPTGPRGIFTKEDALKLVQLKQTGK [A24P]: the abundance fitness is -0.191 ± 0.069.

Take RFRLSPAARNILEKHSLDASQGTFTGPRGIFTKEDALKLVQLKQTGK [A24F]: the abundance fitness is -0.667 ± 0.086.

The values are drawn from the Human Domainome abundance scans (Beltran et al. 2025).
